In this assay the target is T1, RXFP1 receptor (UniProt Q9HBX9 1-757, limits assumed).
T1 sequence (looked up): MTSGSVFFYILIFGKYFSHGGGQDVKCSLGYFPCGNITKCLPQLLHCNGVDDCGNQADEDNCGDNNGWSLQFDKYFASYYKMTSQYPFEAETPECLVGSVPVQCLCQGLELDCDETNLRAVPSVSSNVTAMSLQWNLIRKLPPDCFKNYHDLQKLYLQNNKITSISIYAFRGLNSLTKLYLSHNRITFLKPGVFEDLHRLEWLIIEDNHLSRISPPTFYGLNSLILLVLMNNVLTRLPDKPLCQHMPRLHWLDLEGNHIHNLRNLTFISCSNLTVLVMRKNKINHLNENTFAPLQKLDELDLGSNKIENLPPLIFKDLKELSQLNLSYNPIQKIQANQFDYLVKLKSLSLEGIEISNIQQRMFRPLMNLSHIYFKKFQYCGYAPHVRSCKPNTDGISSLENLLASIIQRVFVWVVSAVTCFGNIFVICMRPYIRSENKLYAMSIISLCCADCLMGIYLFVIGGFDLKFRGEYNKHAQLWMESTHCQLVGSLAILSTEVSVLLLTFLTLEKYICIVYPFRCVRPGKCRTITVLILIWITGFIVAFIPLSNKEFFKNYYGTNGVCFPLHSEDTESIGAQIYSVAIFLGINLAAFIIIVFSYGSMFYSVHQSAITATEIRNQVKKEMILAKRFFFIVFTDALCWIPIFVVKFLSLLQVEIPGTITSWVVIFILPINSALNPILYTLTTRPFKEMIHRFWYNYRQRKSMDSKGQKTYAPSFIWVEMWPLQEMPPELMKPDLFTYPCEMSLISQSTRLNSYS
The assay can be described thus: cell-based or functional assay.

*1 amine or outer side, *2 acyl side, *3 side chain or, on linkers, in order; H or OH if unused. Primed or numbered codes have the meaning given here. Side-chain parts run from the residue outwards. [ ]: non-standard residue; d: D form. The star is where a group is joined. PEG4′ = 2-[2-[2-[2-[2-aminoethoxy]ethoxy]ethoxy]ethoxy]propanoyl; Lys(Me3) = C[N+](C)(C)CCCC[C@H](N)C(=O)O; αMeW = C[C@](N)(Cc1c[nH]c2ccccc12)C(=O)O; γGlu = O=C(O)[C@H](CCC(=O)[*:2])N[*:1]; Arg(Me) = CNC(=N)NCCC[C@H](N)C(=O)O; Stearoyl = CCCCCCCCCCCCCCCCCC(=O)*; Palmitoyl = CCCCCCCCCCCCCCCC(=O)*; Cit = NC(=O)NCCC[C@H](N)C(=O)O; αMeK = C[C@](N)(CCCCN)C(=O)O; Lauroyl = CCCCCCCCCCCC(=O)*; Nle = CCCC[C@H](N)C(=O)O; PEG2′ = PEG2 spacer unit; Aib = CC(C)(N)C(=O)O

Consider Ac-LEGREKVRAK(Ac)I[Aib][Aib]EG[Nle]STWS[Aib]RKK(Ac)[PEG2′][PEG2′][PEG2′]K([γGlu-γGlu-γGlu-Stearoyl])-NH2 [peptide of SEQ ID NO: 14], for which the “EC50 (nM), OVCAR 5 cells (cAMP)” value is 0.04 nM and the “EMax, OVCAR 5 cells (cAMP)” value came to 88%.
On the same counts, the results for Ac-LEGREKVRAQI[Aib][Aib]EG[Nle]STWS[Aib]RKK(Ac)[PEG2′][PEG2′][PEG2′][PEG2′][γGlu][γGlu]K([γGlu-Palmitoyl])-NH2 [peptide of SEQ ID NO: 121] are 0.76 nM and 91%.
Regarding Ac-LEGREKVRAK(Ac)I[Aib][Aib]EG[Nle]STFS[Aib]RKK(Ac)[PEG2′][PEG2′][PEG2′][PEG2′]K([γGlu-γGlu-γGlu-Palmitoyl])-NH2 [peptide of SEQ ID NO: 144], the “EC50 (nM), OVCAR 5 cells (cAMP)” value was determined as 4.1 nM and the “EMax, OVCAR 5 cells (cAMP)” value amounted to 94%.
Take Ac-LEGREKVRAK(Ac)I[Aib][Aib]EG[Nle]STWS[αMeK]RKK(Ac)[PEG2′][PEG2′][PEG2′][PEG2′]K([γGlu-γGlu-γGlu-γGlu-Palmitoyl])-NH2 [peptide of SEQ ID NO: 131]: the “EC50 (nM), OVCAR 5 cells (cAMP)” value was 0.26 nM and the “EMax, OVCAR 5 cells (cAMP)” value was found to be 92%.
On the same counts, the results for Ac-LEGREKVRAK(Ac)I[Aib][Aib]EG[Nle]STWS[Aib][Cit]AK(Ac)K([PEG2′-PEG2′-PEG2′-γGlu-γGlu-γGlu-Stearoyl])-NH2 [peptide of SEQ ID NO: 126] are 9.6 nM and 91%.
Ac-LEGREKVRAK(Ac)I[Aib][Aib]EG[Nle]STWS[Aib]RKK(Ac)[PEG4′][PEG4′]K([γGlu-γGlu-γGlu-Stearoyl])-NH2 [peptide of SEQ ID NO: 124]: the “EC50 (nM), OVCAR 5 cells (cAMP)” value was 0.29 nM and the “EMax, OVCAR 5 cells (cAMP)” value came out at 88%.
With Ac-LEGREKVRAK(Ac)I[Aib][Aib]EG[Nle]STWS[αMeK]RAK(Ac)K([PEG2′-PEG2′-PEG2′-PEG2′-γGlu-γGlu-γGlu-Stearoyl])-NH2 [peptide of SEQ ID NO: 135], the “EC50 (nM), OVCAR 5 cells (cAMP)” value came out at 0.95 nM and the “EMax, OVCAR 5 cells (cAMP)” value was 97%.
On the same counts, the results for Ac-LEGREKVRAK(Ac)I[Aib][Aib]EG[Nle]STFS[αMeK]RKK(Ac)[PEG2′][PEG2′][PEG2′][PEG2′]K([γGlu-γGlu-γGlu-γGlu-Palmitoyl])-NH2 [peptide of SEQ ID NO: 143] are 0.4 nM and 88%.
For Ac-LEGREKVRAK(Ac)I[Aib][Aib]EG[Nle]ST[αMeW]S[αMeK]RKK(Ac)[PEG2′][PEG2′][PEG2′]K([γGlu-γGlu-γGlu-γGlu-Palmitoyl])-NH2 [peptide of SEQ ID NO: 125], in that order: 0.1 nM and 89%.

B1: peptide of SEQ ID NO: 136 (peptide)
peptide: Ac-LEGREKVRAK(Ac)I[Aib][Aib]EG[Nle]STWSXRKK(Ac)[PEG2′][PEG2′][PEG2′][PEG2′][γGlu][γGlu][γGlu]K([γGlu-Palmitoyl])-NH2
modifications: not fully specified (some residues); printed as Ac-L-E-G-R-E-K-V-R-A-K(Ac)-I-Aib-Aib-E-G-Nle-S-T-W-S-Mly-R-K-K(Ac)-PEG2-PEG2-PEG2-PEG2-gE-gE-gE-K(gE-Palm)-NH2
As to B1, the “EC50 (nM), OVCAR 5 cells (cAMP)” value is 0.03 nM and the “EMax, OVCAR 5 cells (cAMP)” value was found to be 92%.
For Ac-LEGREKVRAK(Ac)I[Aib][Aib]EG[Nle]STWS[Aib]RKK(Ac)K([PEG2′-PEG2′-PEG2′-γGlu-γGlu-γGlu-γGlu-Stearoyl])-NH2 [peptide of SEQ ID NO: 128], in that order: 0.22 nM and 91%.
Regarding Ac-LEGREKVRAK(Ac)I[Aib][Aib]EG[Nle]STWS[Aib]RKK(Ac)[PEG4′]K([γGlu-γGlu-γGlu-Stearoyl])-NH2 [peptide of SEQ ID NO: 123], the “EC50 (nM), OVCAR 5 cells (cAMP)” value came to 0.38 nM and the “EMax, OVCAR 5 cells (cAMP)” value came out at 88%.

B2: peptide of SEQ ID NO: 122 (peptide)
peptide: LEGREKVRAQIXXEGXSTWSXRKKKX
modifications: Ac-L-E-G-R-E-K-V-R-A-Q-I-Aib-Aib-E-G-Nle-S-T-W-S-Aib-R-K-K-K-PEG4-PEG4-K(gE-gE-gE-gE-gE-Stea)-NH2
As to B2, the “EC50 (nM), OVCAR 5 cells (cAMP)” value was 0.1 nM and the “EMax, OVCAR 5 cells (cAMP)” value was determined as 93%.
On to Ac-LEGREKVRAQI[Aib][Aib]EG[Nle]STWS[Aib]RK[PEG2′]K([PEG2′-PEG2′-γGlu-γGlu-γGlu-Palmitoyl])-NH2 [peptide of SEQ ID NO: 13], for which the “EC50 (nM), OVCAR 5 cells (cAMP)” value amounted to 8.1 nM and the “EMax, OVCAR 5 cells (cAMP)” value worked out at 81%.
On the same counts, the results for Ac-LEGREKVRAK(Ac)I[Aib][Aib]EG[Nle]STWS[αMeK][Cit]AK(Ac)K([PEG2′-PEG2′-PEG2′-PEG2′-γGlu-γGlu-γGlu-Stearoyl])-NH2 [peptide of SEQ ID NO: 132] are 1.7 nM and 87%.
On the same counts, the results for Ac-LEGREKVRAK(Ac)I[Aib][Aib]EG[Nle]STWS[αMeK][Cit]KK(Ac)K([PEG2′-PEG2′-PEG2′-γGlu-γGlu-γGlu-Stearoyl])-NH2 [peptide of SEQ ID NO: 129] are 1 nM and 89%.

B3: peptide of SEQ ID NO: 139 (peptide)
peptide: Ac-LEGREKVRAK(Ac)I[Aib][Aib]EG[Nle]STFSXAAK(Ac)[PEG2′][PEG2′][PEG2′][PEG2′][γGlu][γGlu][γGlu]K([γGlu-Palmitoyl])-NH2
modifications: not fully specified (some residues); printed as Ac-L-E-G-R-E-K-V-R-A-K(Ac)-I-Aib-Aib-E-G-Nle-S-T-F-S-Mly-A-A-K(Ac)-PEG2-PEG2-PEG2-PEG2-gE-gE-gE-K(gE-Palm)-NH2
For the molecule B3, the “EC50 (nM), OVCAR 5 cells (cAMP)” value is 0.3 nM and the “EMax, OVCAR 5 cells (cAMP)” value was found to be 92%.
For Ac-LEGREKVRAK(Ac)I[Aib][Aib]EG[Nle]STWS[Aib]RKK(Ac)K([PEG2′-PEG2′-PEG2′-γGlu-γGlu-γGlu-Lauroyl])-NH2 [peptide of SEQ ID NO: 120], the “EC50 (nM), OVCAR 5 cells (cAMP)” value is 110 nM and the “EMax, OVCAR 5 cells (cAMP)” value was found to be 92%.
For Ac-LEGREKVRAK(Ac)I[Aib][Aib]EG[Nle]STWS[Aib]R[Lys(Me3)]K(Ac)K([PEG2′-PEG2′-PEG2′-γGlu-γGlu-γGlu-Stearoyl])-NH2 [peptide of SEQ ID NO: 134], in that order: 6.3 nM and 100%.
For Ac-LEGREKVRAK(Ac)I[Aib][Aib]EG[Nle]STWS[Aib]RKK(Ac)K([PEG2′-PEG2′-PEG2′-PEG2′-γGlu-γGlu-γGlu-γGlu-Palmitoyl])-NH2 [peptide of SEQ ID NO: 130], in that order: 0.3 nM and 93%.
On the same counts, the results for Ac-LEGREKVRAK(Ac)I[Aib][Aib]EG[Nle]STFS[αMeK]RKK(Ac)K([PEG2′-PEG2′-PEG2′-PEG2′-γGlu-γGlu-γGlu-γGlu-Palmitoyl])-NH2 [peptide of SEQ ID NO: 140] are 0.4 nM and 88%.
For Ac-LEGREKVRAK(Ac)I[Aib][Aib]EG[Nle]STWS[Aib][Arg(Me)][Lys(Me3)]K(Ac)K([PEG2′-PEG2′-PEG2′-γGlu-γGlu-γGlu-Stearoyl])-NH2 [peptide of SEQ ID NO: 137], the “EC50 (nM), OVCAR 5 cells (cAMP)” value was 0.21 nM and the “EMax, OVCAR 5 cells (cAMP)” value turned out to be 92%.
On the same counts, the results for Ac-LEGREKVRAK(Ac)I[Aib][Aib]EG[Nle]STWS[αMeK][Arg(Me)][Lys(Me3)]K(Ac)K([PEG2′-PEG2′-PEG2′-γGlu-γGlu-γGlu-Stearoyl])-NH2 [peptide of SEQ ID NO: 138] are 0.02 nM and 91%.
For the molecule Ac-LEGREKVRAK(Ac)I[Aib][Aib]EG[Nle]STWS[Aib][Arg(Me)]KK(Ac)K([PEG2′-PEG2′-PEG2′-γGlu-γGlu-γGlu-Stearoyl])-NH2 [peptide of SEQ ID NO: 133], the “EC50 (nM), OVCAR 5 cells (cAMP)” value was determined as 0.01 nM and the “EMax, OVCAR 5 cells (cAMP)” value came out at 83%.
As to Ac-LEGREKVRAK(Ac)I[Aib][Aib]EG[Nle]STWS[αMeK][Arg(Me)][Lys(Me3)]K(Ac)K([PEG2′-PEG2′-PEG2′-PEG2′-γGlu-γGlu-γGlu-γGlu-Palmitoyl])-NH2 [peptide of SEQ ID NO: 141], the “EC50 (nM), OVCAR 5 cells (cAMP)” value was 0.16 nM and the “EMax, OVCAR 5 cells (cAMP)” value came out at 87%.

The values are drawn from patent US20190233493A1 (Sanofi, published 2019).
